Laboratory results taken from article PMC2194124 (The Journal of Experimental Medicine, 2003).

Biological target: Isolated Mac-1 (αMβ2, CD11b/CD18) (UniProt P11215 17-1152; P05107 23-769)
Assay: ELISA

B1: Recombinant soluble mouse RAGE (receptor)
chain: GQNITARIGEPLVLSCKGAPKKPPQQLEWKLNTGRTEAWKVLSPQGGPWDSVARILPNGSLLLPATGIVDEGTFRCRATNRRGKEVKSNYRVRVYQIPGKPEIVDPASELTASVPNKVGTCVSEGSYPAGTLSWHLDGKLLIPDGKETLVKEETRRHPETGLFTLRSELTVIPTQGGTHPTFSCSFSLGLPRRRPLNTAPIQLRVREPGPPEGIQLLVEPEGGIVAPGGTVTLTCAISAQPPPQVHWIKDGAPLPLAPSPVLLLPEVGHEDEGTYSCVATHPSHGPQESPPVSIRVTETGDEGPAEGSVGESGLGTLA
Which IC50 does the source give for B1 here?
The IC50 was about 175 nM.
